Assays:
[1] = biological target: the molecule itself; experiment: SEC-MALS; self-association; 100 µl at 1-1.4 mg/ml on Superdex 200 10/300GL; 20 mM HEPES pH 7.5, 150 mM NaCl, 5% glycerol; protein in DDM micelles, protein and detergent masses separated
[2] = biological target: the molecule itself; experiment: native gel or EMSA; Blue native PAGE, NativePAGE 4-16% Bis-Tris gel, ~0.8 mg/ml protein in DDM micelles, 150 V, 4°C; self-association

B1: Yop1 (wildtype, full length, Saccharomyces cerevisiae) (natural protein, UniProt Q12402 1-180, looked up)
chain: MSEYASSIHSQMKQFDTKYSGNRILQQLENKTNLPKSYLVAGLGFAYLLLIFINVGGVGEILSNFAGFVLPAYLSLVALKTPTSTDDTQLLTYWIVFSFLSVIEFWSKAILYLIPFYWFLKTVFLIYIALPQTGGARMIYQKIVAPLTDRYILRDVSKTEKDEIRASVNEASKATGASVH
notes: Yop1, Saccharomyces cerevisiae, UniProt Q12402, full length gene in pCold I; Integral membrane protein, kept in DDM detergent micelles; tags removed with TEV protease; also called WT; wildtype Yop1; source: E. coli C43, purified (Strep-Tactin, TEV cleavage, His-tag resin flow-through, SEC) in DDM; not shown: (His)9, N-terminal, cleaved; Twin-Strep-tag, N-terminal, cleaved
stoichiometry N [1]: 2

B2: Yop1 S75F variant (natural protein, Saccharomyces cerevisiae, UniProt Q12402 1-180, looked up)
chain: MSEYASSIHSQMKQFDTKYSGNRILQQLENKTNLPKSYLVAGLGFAYLLLIFINVGGVGEILSNFAGFVLPAYLFLVALKTPTSTDDTQLLTYWIVFSFLSVIEFWSKAILYLIPFYWFLKTVFLIYIALPQTGGARMIYQKIVAPLTDRYILRDVSKTEKDEIRASVNEASKATGASVH
notes: Yop1, Saccharomyces cerevisiae, UniProt Q12402, full length gene in pCold I, with S75F; Homologous to the REEP1 SPG31 mutation S23F; source: E. coli C43, purified (Strep-Tactin, TEV cleavage, His-tag resin flow-through, SEC) in DDM; not shown: (His)9, N-terminal, cleaved; Twin-Strep-tag, N-terminal, cleaved
stoichiometry N [2]: 2

B3: Yop1 P71L variant (natural protein, Saccharomyces cerevisiae, UniProt Q12402 1-180, looked up)
chain: MSEYASSIHSQMKQFDTKYSGNRILQQLENKTNLPKSYLVAGLGFAYLLLIFINVGGVGEILSNFAGFVLLAYLSLVALKTPTSTDDTQLLTYWIVFSFLSVIEFWSKAILYLIPFYWFLKTVFLIYIALPQTGGARMIYQKIVAPLTDRYILRDVSKTEKDEIRASVNEASKATGASVH
notes: Yop1, Saccharomyces cerevisiae, UniProt Q12402, full length gene in pCold I, with P71L; Homologous to the REEP1 SPG31 mutation P19L; prone to aggregation in preparative SEC; source: E. coli C43, purified (Strep-Tactin, TEV cleavage, His-tag resin flow-through, SEC) in DDM; not shown: (His)9, N-terminal, cleaved; Twin-Strep-tag, N-terminal, cleaved
stoichiometry N [2]: 2

B4: Yop1 A72E variant (natural protein, Saccharomyces cerevisiae, UniProt Q12402 1-180, looked up)
chain: MSEYASSIHSQMKQFDTKYSGNRILQQLENKTNLPKSYLVAGLGFAYLLLIFINVGGVGEILSNFAGFVLPEYLSLVALKTPTSTDDTQLLTYWIVFSFLSVIEFWSKAILYLIPFYWFLKTVFLIYIALPQTGGARMIYQKIVAPLTDRYILRDVSKTEKDEIRASVNEASKATGASVH
notes: Yop1, Saccharomyces cerevisiae, UniProt Q12402, full length gene in pCold I, with A72E; Homologous to the REEP1 SPG31 mutation A20E; source: E. coli C43, purified (Strep-Tactin, TEV cleavage, His-tag resin flow-through, SEC) in DDM; not shown: (His)9, N-terminal, cleaved; Twin-Strep-tag, N-terminal, cleaved
stoichiometry N [1]: 2
